Assay results as given in the supplement of paper PMC10899765.

Assays:
Details in all cases: 20 nM; 72 h
MCF10A [1] = test: one-nucleolus phenotype percent effect (relative to siNT 0% and siNOL11 100%); higher = more cells with one nucleolus (ribosome biogenesis inhibition)
Method: (§1)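 After 72 h, cells were fixed and stained with Hoechst and anti-fibrillarin, and nucleoli per nucleus were counted with CellProfiler. Values are plate-adjusted percent effect for the one-nucleolus and 5+ nucleoli phenotypes, normalised to siNT (0%) and to the positive controls siNOL11 or siKIF11 (100%), as the mean of biological triplicates. Percent viability is the nuclei count relative to siNT.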

MCF10A [2] = test: percent viability (nuclei count relative to siNT); higher = more viable cells
Method: as §1

MCF10A [3] = test: 5+ nucleoli phenotype percent effect (relative to siNT 0% and siKIF11 100%); higher = more cells with five or more nucleoli
Method: as §1

Sequence: UCUGGCUAUCUCACGAGACUGU [hsa-miR-4794]
- one-nucleolus phenotype percent effect (MCF10A [1]): 26.9%
- percent viability (MCF10A [2]): 35.9%
- 5+ nucleoli phenotype percent effect (MCF10A [3]): 3.59%

Sequence: UCUGGCUCCGUGUCUUCACUCCC [hsa-miR-149-5p]
- one-nucleolus phenotype percent effect (MCF10A [1]): 30.7%
- percent viability (MCF10A [2]): 32.7%
- 5+ nucleoli phenotype percent effect (MCF10A [3]): -2.69%

Sequence: UCUGGCUGUGCUGUAAUGCAG [hsa-miR-6504-5p]
- one-nucleolus phenotype percent effect (MCF10A [1]): 6.53%
- percent viability (MCF10A [2]): 54.2%
- 5+ nucleoli phenotype percent effect (MCF10A [3]): -5.01%

Sequence: UCUGGCUGUUGUGGUGUGCAA [hsa-miR-3064-5p]
- one-nucleolus phenotype percent effect (MCF10A [1]): 46.2%
- percent viability (MCF10A [2]): 17.8%
- 5+ nucleoli phenotype percent effect (MCF10A [3]): -22.7%

Sequence: UCUGGGAGGUUGUAGCAGUGGAA [hsa-miR-3192]
- one-nucleolus phenotype percent effect (MCF10A [1]): 62.5%
- percent viability (MCF10A [2]): 14.6%
- 5+ nucleoli phenotype percent effect (MCF10A [3]): -19.2%

Sequence: UCUGGGCAACAAAGUGAGACCU [hsa-miR-1285-3p]
- one-nucleolus phenotype percent effect (MCF10A [1]): 20.6%
- percent viability (MCF10A [2]): 28.8%
- 5+ nucleoli phenotype percent effect (MCF10A [3]): 2.8%

Sequence: UCUGGGCACAGGCGGAUGGACAGG [hsa-miR-5189]
- one-nucleolus phenotype percent effect (MCF10A [1]): 29.3%
- percent viability (MCF10A [2]): 34.5%
- 5+ nucleoli phenotype percent effect (MCF10A [3]): -2.97%

Sequence: UCUGGGGAUGAGGACAGUGUGU [hsa-miR-4700-5p]
- one-nucleolus phenotype percent effect (MCF10A [1]): 29%
- percent viability (MCF10A [2]): 35.8%
- 5+ nucleoli phenotype percent effect (MCF10A [3]): -10.2%

Sequence: UCUGGGGUCUUGGGCCAUC [hsa-miR-7155-5p]
- one-nucleolus phenotype percent effect (MCF10A [1]): 34.2%
- percent viability (MCF10A [2]): 10.2%
- 5+ nucleoli phenotype percent effect (MCF10A [3]): -0.455%

Sequence: UCUGGGUGCAGUGGGGGUU [hsa-miR-6776-5p]
- one-nucleolus phenotype percent effect (MCF10A [1]): 24.4%
- percent viability (MCF10A [2]): 2.41%
- 5+ nucleoli phenotype percent effect (MCF10A [3]): -32.7%

Sequence: UCUGGUAAGAGAUUUGGGCAUA [hsa-miR-4490]
- one-nucleolus phenotype percent effect (MCF10A [1]): -25.9%
- percent viability (MCF10A [2]): 54.4%
- 5+ nucleoli phenotype percent effect (MCF10A [3]): 46.4%

Sequence: UCUGGUAUGUAGUAGGUAAUAA [hsa-miR-4774-5p]
- one-nucleolus phenotype percent effect (MCF10A [1]): -25.6%
- percent viability (MCF10A [2]): 62.8%
- 5+ nucleoli phenotype percent effect (MCF10A [3]): 80.9%

Sequence: UCUGGUCCUGGACAGGAGGC [hsa-miR-7152-3p]
- one-nucleolus phenotype percent effect (MCF10A [1]): -12.8%
- percent viability (MCF10A [2]): 41.9%
- 5+ nucleoli phenotype percent effect (MCF10A [3]): 18.5%

Sequence: UCUGGUGUAUAGCGUUGCUCA [hsa-miR-7978]
- one-nucleolus phenotype percent effect (MCF10A [1]): 19.2%
- percent viability (MCF10A [2]): 27.6%
- 5+ nucleoli phenotype percent effect (MCF10A [3]): -4.49%

Sequence: UCUGUAGCCUGGGAGCAAUGGGGU [hsa-miR-3137]
- one-nucleolus phenotype percent effect (MCF10A [1]): 24%
- percent viability (MCF10A [2]): 13.2%
- 5+ nucleoli phenotype percent effect (MCF10A [3]): -20.3%

Sequence: UCUGUAUUCUCCUUUGCCUGCAG [hsa-miR-4742-3p]
- one-nucleolus phenotype percent effect (MCF10A [1]): 6.5%
- percent viability (MCF10A [2]): 24.4%
- 5+ nucleoli phenotype percent effect (MCF10A [3]): 3.24%

Sequence: UCUGUCAUUUCUUUAGGCCAAUA [hsa-miR-215-3p]
- one-nucleolus phenotype percent effect (MCF10A [1]): 2.4%
- percent viability (MCF10A [2]): 39.5%
- 5+ nucleoli phenotype percent effect (MCF10A [3]): -6.58%

Sequence: UCUGUGAGACCAAAGAACUACU [hsa-miR-4677-3p]
- one-nucleolus phenotype percent effect (MCF10A [1]): 23.1%
- percent viability (MCF10A [2]): 28.6%
- 5+ nucleoli phenotype percent effect (MCF10A [3]): -42.7%

Sequence: UCUGUGAUAGAGAUUCUUUGCU [hsa-miR-4679]
- one-nucleolus phenotype percent effect (MCF10A [1]): -10.8%
- percent viability (MCF10A [2]): 103%
- 5+ nucleoli phenotype percent effect (MCF10A [3]): 8.51%

Sequence: UCUGUGCCCCUACUUCCCAG [hsa-miR-6889-3p]
- one-nucleolus phenotype percent effect (MCF10A [1]): -15.5%
- percent viability (MCF10A [2]): 63%
- 5+ nucleoli phenotype percent effect (MCF10A [3]): 16.2%

Sequence: UCUGUGCUACUGGAUGAAGAGU [hsa-miR-7157-3p]
- one-nucleolus phenotype percent effect (MCF10A [1]): -22.7%
- percent viability (MCF10A [2]): 92.3%
- 5+ nucleoli phenotype percent effect (MCF10A [3]): 36.4%

Sequence: UCUGUGCUUCACCCCUACCCAG [hsa-miR-6737-3p]
- one-nucleolus phenotype percent effect (MCF10A [1]): 3.19%
- percent viability (MCF10A [2]): 68.8%
- 5+ nucleoli phenotype percent effect (MCF10A [3]): -3.33%

Sequence: UCUGUGGAGUGGGGUGCCUGU [hsa-miR-7114-5p]
- one-nucleolus phenotype percent effect (MCF10A [1]): 15%
- percent viability (MCF10A [2]): 16%
- 5+ nucleoli phenotype percent effect (MCF10A [3]): 7.56%

Sequence: UCUUACUCCCUCAGGCACUG [hsa-miR-550b-3p]
- one-nucleolus phenotype percent effect (MCF10A [1]): 1.54%
- percent viability (MCF10A [2]): 31%
- 5+ nucleoli phenotype percent effect (MCF10A [3]): -5.7%

Sequence: UCUUCAACCUCAGGACUUGCA [hsa-miR-676-5p]
- one-nucleolus phenotype percent effect (MCF10A [1]): -20.5%
- percent viability (MCF10A [2]): 56%
- 5+ nucleoli phenotype percent effect (MCF10A [3]): 37.9%

Sequence: UCUUCACCUGCCUCUGCCUGCA [hsa-miR-6754-3p]
- one-nucleolus phenotype percent effect (MCF10A [1]): -24.7%
- percent viability (MCF10A [2]): 71.5%
- 5+ nucleoli phenotype percent effect (MCF10A [3]): 15.2%

Sequence: UCUUCUCUGUUUUGGCCAUGUG [hsa-miR-942]
- one-nucleolus phenotype percent effect (MCF10A [1]): -0.685%
- percent viability (MCF10A [2]): 73.4%
- 5+ nucleoli phenotype percent effect (MCF10A [3]): 12.1%

Sequence: UCUUCUUCCUUUGCAGAGUUGA [hsa-miR-4778-3p]
- one-nucleolus phenotype percent effect (MCF10A [1]): -1.98%
- percent viability (MCF10A [2]): 77.1%
- 5+ nucleoli phenotype percent effect (MCF10A [3]): 1.95%

Sequence: UCUUGAAGUCAGAACCCGCAA [hsa-miR-4635]
- one-nucleolus phenotype percent effect (MCF10A [1]): 19.8%
- percent viability (MCF10A [2]): 45.8%
- 5+ nucleoli phenotype percent effect (MCF10A [3]): -29.8%

Sequence: UCUUGGAGUAGGUCAUUGGGUGG [hsa-miR-432-5p]
- one-nucleolus phenotype percent effect (MCF10A [1]): 28.2%
- percent viability (MCF10A [2]): 34.1%
- 5+ nucleoli phenotype percent effect (MCF10A [3]): -33.5%

Sequence: UCUUGUGUUCUCUAGAUCAGU [hsa-miR-581]
- one-nucleolus phenotype percent effect (MCF10A [1]): -3.72%
- percent viability (MCF10A [2]): 82.2%
- 5+ nucleoli phenotype percent effect (MCF10A [3]): 2.53%

Sequence: UCUUUGGUUAUCUAGCUGUAUGA [hsa-miR-9-5p]
- one-nucleolus phenotype percent effect (MCF10A [1]): 20.5%
- percent viability (MCF10A [2]): 54.9%
- 5+ nucleoli phenotype percent effect (MCF10A [3]): -15.1%

Sequence: UCUUUUCUUUGAGACUCACU [hsa-miR-627-3p]
- one-nucleolus phenotype percent effect (MCF10A [1]): -15.6%
- percent viability (MCF10A [2]): 34.1%
- 5+ nucleoli phenotype percent effect (MCF10A [3]): 21.8%

Sequence: UGAAACAUACACGGGAAACCUC [hsa-miR-494]
- one-nucleolus phenotype percent effect (MCF10A [1]): 34.9%
- percent viability (MCF10A [2]): 24.5%
- 5+ nucleoli phenotype percent effect (MCF10A [3]): -37.3%

Sequence: UGAAACUGGAGCGCCUGGAGGA [hsa-miR-4738-3p]
- one-nucleolus phenotype percent effect (MCF10A [1]): 26.9%
- percent viability (MCF10A [2]): 28.6%
- 5+ nucleoli phenotype percent effect (MCF10A [3]): -20.8%

Sequence: UGAAGCCAGCUCUGGUCUGGGC [hsa-miR-4786-3p]
- one-nucleolus phenotype percent effect (MCF10A [1]): 25%
- percent viability (MCF10A [2]): 29%
- 5+ nucleoli phenotype percent effect (MCF10A [3]): -24%

Sequence: UGAAGCGCCUGUGCUCUGCCGAGA [hsa-miR-7706]
- one-nucleolus phenotype percent effect (MCF10A [1]): -18.1%
- percent viability (MCF10A [2]): 40.2%
- 5+ nucleoli phenotype percent effect (MCF10A [3]): 12.3%

Sequence: UGAAGCUCUAAGGUUCCGCCUGC [hsa-miR-3928-5p]
- one-nucleolus phenotype percent effect (MCF10A [1]): 20.8%
- percent viability (MCF10A [2]): 23.8%
- 5+ nucleoli phenotype percent effect (MCF10A [3]): -19.2%

Sequence: UGAAGCUCUGACAUUCCUGCAG [hsa-miR-6806-3p]
- one-nucleolus phenotype percent effect (MCF10A [1]): 15.3%
- percent viability (MCF10A [2]): 26.6%
- 5+ nucleoli phenotype percent effect (MCF10A [3]): -18.7%

Sequence: UGAAGUACCAGCUACUCGAGAG [hsa-miR-5585-5p]
- one-nucleolus phenotype percent effect (MCF10A [1]): -3.33%
- percent viability (MCF10A [2]): 36.7%
- 5+ nucleoli phenotype percent effect (MCF10A [3]): -8.83%

Sequence: UGAAGUUACAUCAUGGUCGCUU [hsa-miR-4670-3p]
- one-nucleolus phenotype percent effect (MCF10A [1]): 2.16%
- percent viability (MCF10A [2]): 36.1%
- 5+ nucleoli phenotype percent effect (MCF10A [3]): -11.4%

Sequence: UGACAACUAUGGAUGAGCUCU [hsa-miR-549a]
- one-nucleolus phenotype percent effect (MCF10A [1]): -18.5%
- percent viability (MCF10A [2]): 77.8%
- 5+ nucleoli phenotype percent effect (MCF10A [3]): 15.5%

Sequence: UGACACGGAGGGUGGCUUGGGAA [hsa-miR-4462]
- one-nucleolus phenotype percent effect (MCF10A [1]): -18.7%
- percent viability (MCF10A [2]): 82.7%
- 5+ nucleoli phenotype percent effect (MCF10A [3]): 14.9%

Sequence: UGACAGCGCCCUGCCUGGCUC [hsa-miR-2277-3p]
- one-nucleolus phenotype percent effect (MCF10A [1]): 2.24%
- percent viability (MCF10A [2]): 79%
- 5+ nucleoli phenotype percent effect (MCF10A [3]): -19.4%

Sequence: UGACCCACCCCUCUCCACCAG [hsa-miR-7114-3p]
- one-nucleolus phenotype percent effect (MCF10A [1]): 6.96%
- percent viability (MCF10A [2]): 35.3%
- 5+ nucleoli phenotype percent effect (MCF10A [3]): -4.79%

Sequence: UGACCCCCAUGUCGCCUCUGUAG [hsa-miR-6859-3p]
- one-nucleolus phenotype percent effect (MCF10A [1]): 2.24%
- percent viability (MCF10A [2]): 45%
- 5+ nucleoli phenotype percent effect (MCF10A [3]): -21.2%

Sequence: UGACCCCUUCUGUCUCCCUAG [hsa-miR-6846-3p]
- one-nucleolus phenotype percent effect (MCF10A [1]): -13.6%
- percent viability (MCF10A [2]): 47.5%
- 5+ nucleoli phenotype percent effect (MCF10A [3]): 10.3%

Sequence: UGACCGAUUUCUCCUGGUGUUC [hsa-miR-29c-5p]
- one-nucleolus phenotype percent effect (MCF10A [1]): 21.1%
- percent viability (MCF10A [2]): 105%
- 5+ nucleoli phenotype percent effect (MCF10A [3]): -8.5%
